T1: Abp1 SH3 (ABP1_YEAST), P15891
T1 chain: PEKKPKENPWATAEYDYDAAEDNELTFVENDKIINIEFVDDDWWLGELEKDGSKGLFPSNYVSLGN


Molecular target: T1, Abp1 SH3 (ABP1_YEAST), P15891
Experiment: SPOT array

Binder | normalised SPOT signal, Boehringer light units (BLU); mean over the file's lines of this peptide
AAPNSNVPTNERP [YGL122C 485-497] | 146
AISIFDMNLSPIKP [YKL108W 91-104] | 40.2
AGGGIWGPMEKKP [YHR093W 43-55] | 120
AAAAPPLPSDVRP [YDR159W 245-257] | 60.6
YPQMLALPIARRP [YBL022C 179-191] | 8030
YVTFTTIPYKEKP [YCL058C 12-24] | 70.4
YYNDLSYYLRPIKP [Q0115 375-388] | 128
YRVYFSTPPNVKP [YBR037C 219-231] | 138
AKSTRSSPQKAKP [YBR203W 447-459] | 88.6
ADQRKLFPNWIKP [YHR165C 1003-1015] | 456
AIAYDNAPYSPKP [YGL008C 735-747] | 173
AIDPPRRPHNVKP [YCL048W 27-39] | 2120
AAYNAKKAAKPAKP [YAL003W 104-117] | 109
YYRLDALPKDGKP [YGL245W 693-705] | 219
YTNMNSLVATPMKP [YHR015W 541-554] | 145
AIKSIYSPSDKRP [YBR229C 581-593] | 351
AIRKENLPNLEKP [YDR150W 1608-1620] | 72.3
AIIYHHKAGDPFKP [YGR276C 328-341] | 155
YTPTSSQPRPPPRP [YGR268C 67-80] | 532
YQKTFKLPWDPRP [YBL086C 310-322] | 155

Results, then the binder that gave them:

normalised SPOT signal, Boehringer light units (BLU); mean over the file's lines of this peptide | Binder
140 | YTDNDDYPELDRP [YOR292C 157-169]
233 | AGPKPSISLVPDKP [YLR189C 14-27]
82.3 | YYVLNPNNKQPIKP [YNL076W 85-98]
94.4 | AHLSAADPDFYKP [YOR153W 112-124]
1840 | YSRQAIPPPVPNRP [YLR144C 3-16]
64 | YRLLRLLPHASRP [YOR267C 685-697]
223 | ALDGSSKPFKVKP [YLR392C 95-107]
328 | AKDPIRTPDAKKP [YLR226W 381-393]
160 | AEGNVKPWNPPQKP [YLR295C 56-69]
27.3 | AGDDEPGADEPARP [YOL073C 298-311]
61.8 | ADDSFIFPDEDKP [YNL103W 152-164]
102 | ALFGFRDPNGIRP [YMR300C 181-193]
211 | YYVSKRVPVKNRP [YNL023C 118-130]
45.6 | AAAPDVKPHDTKP [YPR125W 432-444]
112 | ASVEQFDLKMPSKP [YLR055C 485-498]
87.3 | AKKEFDEKLPPKKP [YMR072W 106-119]
132 | AIIDRIPPPTGRP [YLR289W 219-231]
144 | YYSASPLPASKRP [YMR108W 43-55]
182 | AAADSVSPDSQRP [YLL027W 53-65]
86.6 | AAELGNNALPPTKP [YNR046W 63-76]
243 | AAVPTKTIASPQRP [YOR227W 52-65]
59.8 | YYRELLSFLSPGKP [YML005W 156-169]

Reference: article PMC314469, “Protein Interaction Networks by Proteome Peptide Scanning” (PLoS Biology, 2004)
